Measurements reported in the Immune Epitope Database (IEDB).
Blank lines part the entries; values can stand above or below the sequence they belong to.

What was measured:
Settings in all cases: source organism: Homo sapiens
HLA-A*03:01 [1] = assay: IEDB peptide-MHC binding, purified MHC/competitive/radioactivity; ≥ and ≤ were set here for values at or beyond the usual limits of such assays
HLA-A*11:01 [2] = assay: as above
HLA-B*08:01 = assay: IEDB peptide-MHC binding, purified MHC/competitive/radioactivity; filed as Kd, often an IC50 or EC50 that approximates it; ≥ and ≤ were set here for values at or beyond the usual limits of such assays
HLA-A*02:01 = assay: as above
HLA-B*07:02 = assay: as above
HLA-B*27:01 [3] = assay: IEDB peptide-MHC binding, purified MHC/competitive/radioactivity; ≥ and ≤ were set here for values at or beyond the usual limits of such assays
HLA-A*11:01 [4] = assay: IEDB peptide-MHC binding, purified MHC/competitive/radioactivity; filed as Kd, often an IC50 or EC50 that approximates it; ≥ and ≤ were set here for values at or beyond the usual limits of such assays
HLA-A*24:02 = assay: as above
HLA-B*27:01 [5] = assay: as above
HLA-A*03:01 [6] = assay: as above

IC50 (HLA-A*03:01 [1]): 0.3 µM
IC50 (HLA-A*11:01 [2]): 0.097 µM
Sequence: ATGFKQSSK

Kd (HLA-B*08:01): 3.6 µM
Kd (HLA-A*02:01): ≥ 30 µM
Sequence: ATGFKQSSKAL

Kd (HLA-A*02:01): ≥ 50 µM
Sequence: CITQGKAI

Kd (HLA-A*02:01): ≥ 50 µM
Sequence: DLSSCITQGKA

Kd (HLA-B*07:02): ≥ 30 µM
Sequence: EALQRPVASDF

IC50 (HLA-B*27:01 [3]): 0.19 µM
Sequence: GFKQSSKAL

Kd (HLA-A*11:01 [4]): 2.15 µM
IC50 (HLA-A*03:01 [1]): 0.81 µM
Sequence: GFKQSSKALQR

Kd (HLA-A*11:01 [4]): ≥ 5 µM
IC50 (HLA-A*03:01 [1]): 0.545 µM
Sequence: GKQSSKALQR

IC50 (HLA-A*03:01 [1]): 0.4 µM
IC50 (HLA-A*11:01 [2]): 0.125 µM
Sequence: HSATGFKQSSK

Kd (HLA-A*02:01): ≥ 50 µM
Sequence: HVASGAGEAAI

Kd (HLA-A*11:01 [4]): ≥ 30 µM
Sequence: INKEEALQR

Kd (HLA-A*24:02): ≥ 30 µM
Sequence: KALQRPVSDF

IC50 (HLA-A*03:01 [1]): 0.043 µM
IC50 (HLA-A*11:01 [2]): 0.273 µM
Sequence: KQSSKALQR

Kd (HLA-B*08:01): 1.9 µM
Kd (HLA-A*02:01): ≥ 30 µM
Sequence: LTINKEEAL

Kd (HLA-B*27:01 [5]): ≥ 30 µM
Sequence: NKEEALQR

Kd (HLA-A*02:01): ≥ 30 µM
Sequence: PLTINKEEAL

Kd (HLA-A*03:01 [6]): ≥ 30 µM
Kd (HLA-A*11:01 [4]): ≥ 30 µM
Sequence: QSSKALQR

Kd (HLA-A*03:01 [6]): 5.45 µM
Kd (HLA-A*11:01 [4]): 3.53 µM
Sequence: SATGFKQSSK

Kd (HLA-A*03:01 [6]): ≥ 30 µM
Kd (HLA-A*11:01 [4]): ≥ 30 µM
Sequence: TGFKQSSK

Kd (HLA-A*02:01): ≥ 30 µM
Sequence: TINKEEAL

Kd (HLA-A*03:01 [6]): ≥ 30 µM
Kd (HLA-A*11:01 [4]): ≥ 30 µM
Sequence: TINKEEALQR

Kd (HLA-A*02:01): ≥ 50 µM
Sequence: VASGAGEAAI
